Measurements reported in patent US12060424 (AMUNIX PHARMACEUTICALS, dated 2024).

T1: human EpCAM expressed on cells (CHO cells stably transfected with human EpCAM); EpCAM-positive human tumor … (human, UniProt P16422 24-314)
T1 construct: whole, on cells; also called EpCAM-CHO; hEp-CHO 4-12B
T1 sequence (looked up): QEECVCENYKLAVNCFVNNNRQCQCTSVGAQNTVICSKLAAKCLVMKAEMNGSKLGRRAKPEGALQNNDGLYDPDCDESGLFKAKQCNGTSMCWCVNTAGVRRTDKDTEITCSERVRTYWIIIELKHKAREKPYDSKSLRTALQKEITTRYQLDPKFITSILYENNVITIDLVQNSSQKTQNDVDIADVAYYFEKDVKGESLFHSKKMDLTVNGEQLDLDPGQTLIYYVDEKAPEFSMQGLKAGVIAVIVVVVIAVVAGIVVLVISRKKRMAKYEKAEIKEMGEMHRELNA

T2: recombinant human CEA (Abcam cat #ab742), coated on ELISA plate (human, UniProt P06731 35-685, limits assumed)
T2 construct: also called CEA antigen
T2 sequence (looked up): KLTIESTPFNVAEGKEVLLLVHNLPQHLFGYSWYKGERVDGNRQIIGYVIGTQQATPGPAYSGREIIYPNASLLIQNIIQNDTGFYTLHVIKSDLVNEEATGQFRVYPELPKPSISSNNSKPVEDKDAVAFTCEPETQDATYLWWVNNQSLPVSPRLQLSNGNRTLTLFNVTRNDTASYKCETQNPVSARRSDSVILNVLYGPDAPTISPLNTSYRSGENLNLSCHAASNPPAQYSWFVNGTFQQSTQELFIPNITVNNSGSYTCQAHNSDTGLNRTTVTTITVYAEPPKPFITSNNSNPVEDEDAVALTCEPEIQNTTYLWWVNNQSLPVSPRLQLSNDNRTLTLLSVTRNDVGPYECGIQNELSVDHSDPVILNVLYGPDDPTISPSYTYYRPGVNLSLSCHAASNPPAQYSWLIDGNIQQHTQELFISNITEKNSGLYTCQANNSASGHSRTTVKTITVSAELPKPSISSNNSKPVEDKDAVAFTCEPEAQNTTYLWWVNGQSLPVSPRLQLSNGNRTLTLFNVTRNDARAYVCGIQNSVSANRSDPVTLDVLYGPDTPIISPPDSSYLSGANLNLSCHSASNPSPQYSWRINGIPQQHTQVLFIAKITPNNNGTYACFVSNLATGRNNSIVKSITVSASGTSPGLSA

T3: recombinant human EpCAM (rhEpCAM), coated on ELISA plate (human, UniProt P16422 24-265)
T3 construct: Bought reagent
T3 sequence (looked up): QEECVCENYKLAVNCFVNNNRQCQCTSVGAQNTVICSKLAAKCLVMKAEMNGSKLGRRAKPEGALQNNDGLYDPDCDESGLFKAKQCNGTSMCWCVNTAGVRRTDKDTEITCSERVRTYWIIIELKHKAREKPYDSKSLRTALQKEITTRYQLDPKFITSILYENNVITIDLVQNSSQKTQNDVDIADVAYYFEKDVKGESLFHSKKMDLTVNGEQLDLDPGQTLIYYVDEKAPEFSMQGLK

T4: Fc-tagged EpCAM (R&D Systems, cat #960-EP-050), human, coupled to SPR chip (human, UniProt P16422 24-265)
T4 construct: Bought reagent; also called human EpCAM; EpCAM chip; not shown: Fc tag of the bought reagent
T4 sequence (looked up): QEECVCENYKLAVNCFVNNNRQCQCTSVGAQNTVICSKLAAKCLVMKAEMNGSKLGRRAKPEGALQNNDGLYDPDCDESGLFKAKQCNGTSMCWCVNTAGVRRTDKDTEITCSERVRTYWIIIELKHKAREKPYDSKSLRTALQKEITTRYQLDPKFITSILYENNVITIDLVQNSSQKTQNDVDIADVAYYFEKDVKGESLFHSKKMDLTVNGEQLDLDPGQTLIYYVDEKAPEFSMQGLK


Assays:
[1] = molecular target: T5, human CD3 on cells (CD3+ Jurkat cells; purified human CD3 positive T cells) (human, UniProt P07766 23-207); assay: competition flow cytometry on Jurkat cells
T5 construct: whole, on cells; CD3 is a multi-subunit complex
T5 sequence (P07766 23-207): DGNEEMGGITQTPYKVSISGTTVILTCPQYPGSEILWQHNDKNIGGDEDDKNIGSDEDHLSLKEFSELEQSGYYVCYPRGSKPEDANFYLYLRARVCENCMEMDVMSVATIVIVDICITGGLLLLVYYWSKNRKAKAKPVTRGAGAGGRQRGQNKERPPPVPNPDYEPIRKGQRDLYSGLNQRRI

[2] = molecular target: T1, human EpCAM expressed on cells (CHO …); assay: competition flow cytometry on hEp-CHO 4-12B cells
[3] = molecular target: T1, human EpCAM expressed on cells (CHO …); assay: competition flow cytometry on EpCAM-CHO cells
[4] = molecular target: T2, recombinant human CEA (Abcam cat …); assay: sandwich ELISA: recombinant human CEA coated, biotin-conjugated protein L detection
[5] = molecular target: T3, recombinant human EpCAM (rhEpCAM), …; assay: sandwich ELISA: rhEpCAM coated, peroxidase-conjugated protein L detection
[6] = molecular target: T3, recombinant human EpCAM (rhEpCAM), …; assay: sandwich ELISA: rhEpCAM coated, biotin-conjugated protein L detection
[7] = molecular target: T4, Fc-tagged EpCAM (R&D Systems, cat …); assay: SPR
[8] = molecular target: T5, human CD3 on cells (CD3+ Jurkat cells; …); assay: cell-based or functional assay
[9] = molecular target: recombinant human CD3 epsilon & delta (rhCD3ε & δ), Creative BioMart cat #CD3E&CD3D-219H (human) (UniProt P07766); assay: SPR (Biacore 3000), His-tagged CD3εδ coupled to chip, ProTIA as analyte at 5-6 concentrations
Sequence of recombinant human CD3 epsilon & delta (rhCD3ε & δ), Creative BioMart cat #CD3E&CD3D-219H (human) (P07766 23-126, stated change not applied, chain 1 of 2): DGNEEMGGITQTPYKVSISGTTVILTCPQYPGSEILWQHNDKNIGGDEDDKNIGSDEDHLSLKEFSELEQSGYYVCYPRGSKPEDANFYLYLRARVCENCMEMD
Sequence of recombinant human CD3 epsilon & delta (rhCD3ε & δ), Creative BioMart cat #CD3E&CD3D-219H (human) (P04234 22-105, stated change not applied, chain 2 of 2, further chain): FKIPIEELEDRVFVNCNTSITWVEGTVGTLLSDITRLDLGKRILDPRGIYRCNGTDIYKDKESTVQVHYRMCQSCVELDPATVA

[10] = molecular target: T5, human CD3 on cells (CD3+ Jurkat cells; …); assay: competition flow cytometry on CD3+ Jurkat cells
[11] = molecular target: T6, recombinant human HER2 (AcroBiosystems cat #HE2-H525), coated on ELISA plate (human, UniProt P04626 23-652); assay: sandwich ELISA: recombinant human HER2 coated, biotin-conjugated protein L detection
T6 construct: also called HER2 antigen

[12] = molecular target: recombinant human CD3 epsilon & delta (rhCD3ε & δ), Creative BioMart cat #CD3E&CD3D-219H (human) (UniProt P07766); assay: SPR
[13] = molecular target: recombinant human CD3 epsilon & delta (rhCD3ε & δ), Creative BioMart cat #CD3E&CD3D-219H (human) (UniProt P07766); assay: sandwich ELISA: rhCD3ε & δ coated, peroxidase-conjugated protein L detection
[14] = molecular target: T4, Fc-tagged EpCAM (R&D Systems, cat …); assay: SPR (Biacore 3000), Fc-tagged EpCAM coupled to chip, ProTIA as analyte at 5-6 concentrations

Binder	fold weaker binding affinity than cleaved AC1695 [1]	fold weaker binding affinity than cleaved AC1695 [2]	fold stronger binding affinity than untreated and non-cleavable ProTIA [3]	binding result [4]	EC50 [5]	EC50 [6]	fold stronger binding affinity than untreated and non-cleavable ProTIA [7]	EC50, LDH release cytotoxicity, purified human CD3 positive T cells with OVCAR-3 cells 5:1 [8]	EC50, LDH release cytotoxicity, purified human CD3 positive T cells with SK-OV-3 cells 5:1 [8]	Kd [9]	fold stronger binding affinity than untreated and non-cleavable ProTIA [10]	binding result [11]	fold stronger binding affinity than untreated and non-cleavable ProTIA [12]	EC50 [13]	Kd [14]
AC1886 anti-EpCAM×anti-CD3 ProTIA with two XTEN (XTEN292-RSR3058-anti-EpCAM-anti-CD3 tandem scFv-RSR3058-XTEN_867-6xHIS) (bispecific antibody, Uncleavable release segments RSR-3058; anti-EpCAM 4D5MOCB; hCD3.3) SPAGSPTSTEEGTSESATPESGPGTSTEPSEGSAPGTSESATPESGPGSEPATSGSETPGTSESATPESGPGSEPATSGSETPGTSESATPESGPGTSTEPSEGSAPGSPAGSPTSTEEGTSESATPESGPGSEPATSGSETPGTSESATPESGPGSPAGSPTSTEEGSPAGSPTSTEEGTSTEPSEGSAPGTSESATPESGPGTSESATPESGPGTSESATPESGPGSEPATSGSETPGSEPATSGSETPGSPAGSPTSTEEGTSTEPSEGSAPGTSTEPSEGSAPGGSAPTTGEAGEAAGATSAGATGPATSGSETPGTDIQMTQSPSSLSASVGDRVTITCRSTKSLLHSNGITYLYWYQQKPGKAPKLLIYQMSNLASGVPSRFSSSGSGTDFTLTISSLQPEDFATYYCAQNLEIPRTFGQGTKVEIKGATPPETGAETESPGETTGGSAESEPPGEGQVQLVQSGPGLVQPGGSVRISCAASGYTFTNYGMNWVKQAPGKGLEWMGWINTYTGESTYADSFKGRFTFSLDTSASAAYLQINSLRAEDTAVYYCARFAIKGDYWGQGTLLTVSSGGGGSDIQMTQSPSSLSASVGDRVTITCRASQDIRNYLNWYQQKPGKAPKLLIYYTSRLESGVPSRFSGSGSGTDYTLTISSLQPEDFATYYCQQGNTLPWTFGQGTKVEIKGATPPETGAETESPGETTGGSAESEPPGEGEVQLVESGGGLVQPGGSLRLSCAASGYSFTGYTMNWVRQAPGKGLEWVALINPYKGVSTYNQKFKDRFTISVDKSKNTAYLQMNSLRAEDTAVYYCARSGYYGDSDWYFDVWGQGTLVTVSSGTAEAASASGTTGEAGEAAGATSAGATGPSPGSPAGSPTSTEEGTSESATPESGPGTSTEPSEGSAPGSPAGSPTSTEEGTSTEPSEGSAPGTSTEPSEGSAPGTSESATPESGPGSEPATSGSETPGSEPATSGSETPGSPAGSPTSTEEGTSESATPESGPGTSTEPSEGSAPGTSTEPSEGSAPGSPAGSPTSTEEGTSTEPSEGSAPGTSTEPSEGSAPGTSESATPESGPGTSTEPSEGSAPGTSESATPESGPGSEPATSGSETPGTSTEPSEGSAPGTSTEPSEGSAPGTSESATPESGPGTSESATPESGPGSPAGSPTSTEEGTSESATPESGPGSEPATSGSETPGTSESATPESGPGTSTEPSEGSAPGTSTEPSEGSAPGTSTEPSEGSAPGTSTEPSEGSAPGTSTEPSEGSAPGTSTEPSEGSAPGSPAGSPTSTEEGTSTEPSEGSAPGTSESATPESGPGSEPATSGSETPGTSESATPESGPGSEPATSGSETPGTSESATPESGPGTSTEPSEGSAPGTSESATPESGPGSPAGSPTSTEEGSPAGSPTSTEEGSPAGSPTSTEEGTSESATPESGPGTSTEPSEGSAPGTSESATPESGPGSEPATSGSETPGTSESATPESGPGSEPATSGSETPGTSESATPESGPGTSTEPSEGSAPGSPAGSPTSTEEGTSESATPESGPGSEPATSGSETPGTSESATPESGPGSPAGSPTSTEEGSPAGSPTSTEEGTSTEPSEGSAPGTSESATPESGPGTSESATPESGPGTSESATPESGPGSEPATSGSETPGSEPATSGSETPGSPAGSPTSTEEGTSTEPSEGSAPGTSTEPSEGSAPGSEPATSGSETPGTSESATPESGPGTSTEPSEGSAPGHHHHHH	~30 fold	~100 fold	–	–	–	–	–	–	–	–	–	–	–	–	–
protease-treated (MMP-9 cleaved) AC1476 anti-EpCAM×anti-CD3 ProTIA (bispecific antibody, mass 58,071 Da); also called MMP-9 treated AC1476; MMP-9 treated AC1516) DIQMTQSPSSLSASVGDRVTITCRSTKSLLHSNGITYLYWYQQKPGKAPKLLIYQMSNLASGVPSRFSSSGSGTDFTLTISSLQPEDFATYYCAQNLEIPRTFGQGTKVEIKGATPPETGAETESPGETTGGSAESEPPGEGQVQLVQSGPGLVQPGGSVRISCAASGYTFTNYGMNWVKQAPGKGLEWMGWINTYTGESTYADSFKGRFTFSLDTSASAAYLQINSLRAEDTAVYYCARFAIKGDYWGQGTLLTVSSGGGGSDIQMTQSPSSLSASVGDRVTITCRASQDIRNYLNWYQQKPGKAPKLLIYYTSRLESGVPSRFSGSGSGTDYTLTISSLQPEDFATYYCQQGNTLPWTFGQGTKVEIKGATPPETGAETESPGETTGGSAESEPPGEGEVQLVESGGGLVQPGGSLRLSCAASGYSFTGYTMNWVRQAPGKGLEWVALINPYKGVSTYNQKFKDRFTISVDKSKNTAYLQMNSLRAEDTAVYYCARSGYYGDSDWYFDVWGQGTLVTVSSGTAEAASASGLSGRSDNHSPLG	–	–	~10 fold	no binding	0.12 nM	0.11 nM	~10 fold	0.3 pM	2.4 pM	2.22 nM	~30 fold	no binding	10 fold	0.31 nM	1.15 nM
